In US20250011363A1, “OPTIMIZED SHORTENED PEPTIDE THAT BINDS TO ACETYLCHOLINE RECEPTOR, AND USE THEREOF” (SKINMED CO., LTD., priority 2021, published 2025):

Molecular target: acetylcholine receptor
Assay: SPR, peptide at 10 uM on immobilised AchR

| Binding affinity (RU) | Binder |
| --- | --- |
| 126 | RKRLCK [6mer-1-22] |
| 145 | RKRFLK [6mer-1-14] |
| 154 | RRQVRR [6mer-1-30] |
| 142 | RKVIRK [6mer-1-24] |
| 136 | RRGRQR [6mer-1-35] |
| 139 | RKVYQK [6mer-1-39] |
| 145 | KKQFTR [6mer-1-18] |
| 137 | RKWYLK [6mer-1-21] |
| 154 | KKSYCR [6mer-1-33] |
| 125 | RRWISK [6mer-1-28] |
| 136 | KKQYCR [6mer-1-16] |
| 121 | KRSQYK [6mer-1-40] |
| 135 | RKWLYK [6mer-1-34] |
| 123 | KRQICK [6mer-1-15] |
| 153 | KRSVSR [6mer-1-23] |
| 121 | KKWVLR [6mer-1-37] |

| Binding affinity (RU) | Binder |
| --- | --- |
| 142 | KRSFTK [6mer-1-27] |
| 147 | KRQIQR [6mer-1-13] |
| 135 | KRSFYR [6mer-1-19] |
| 126 | RRQQTK [6mer-1-38] |
| 147 | KKSRYK [6mer-1-20] |
| 122 | RKGITK [6mer-1-41] |
| 128 | KKQICK [6mer-1-12] |
| 121 | KRLYCR [6mer-1-31] |
| 139 | KRQFTK [6mer-1-11] |
| 124 | KRLISR [6mer-1-29] |
| 121 | RKGQCR [6mer-1-32] |
| 124 | RKWQQK [6mer-1-36] |
| 135 | KKLIRR [6mer-1-25] |
| 135 | KRVQCR [6mer-1-17] |
| 123 | KKRVLR [6mer-1-26] |
